According to patent US20140141994A1:
Values belong to the binder of their own block, whether it stands above or below them.

Assays:
SYNAGIS® [1] = assay: SPR BIAcore 3000, both injected at 1 µM over immobilized SYNAGIS
SYNAGIS® [2] = assay: SPR BIAcore 3000, SYNAGIS immobilized via primary amino groups, equilibrium binding of soluble SynBP01

SYNAGIS®, sequence (VH, as listed by the source, chain 1 of 2): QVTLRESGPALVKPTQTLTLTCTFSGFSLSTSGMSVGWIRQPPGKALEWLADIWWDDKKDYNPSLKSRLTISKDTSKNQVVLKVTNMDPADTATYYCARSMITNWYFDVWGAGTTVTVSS
SYNAGIS®, sequence (VL, as listed by the source, chain 2 of 2): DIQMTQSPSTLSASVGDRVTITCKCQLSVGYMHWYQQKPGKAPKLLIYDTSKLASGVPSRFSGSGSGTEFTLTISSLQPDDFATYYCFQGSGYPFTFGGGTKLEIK

- fold increase in total response units compared to SynBP01 (SYNAGIS® [1]): 6 fold
B1: SynBP01-Fc (Fc fusion, not shown: a dimerising Fc or GST)
chain: IEVKDVTDTTALITWSPPSVLVGYTIELTYGIKDVPGDRTTIDLTEDENQYSIGNLKPDTEYEVSLISVTEFGRRRSKETFTT

- Kd (SYNAGIS® [2]): 16 µM
B2: SynBP01 (designed binder)
chain: AAIEVKDVTDTTALITWSPPSVLVGYTIELTYGIKDVPGDRTTIDLTEDENQYSIGNLKPDTEYEVSLISVTEFGRRRSKETFTTGGGTLEHHHHHH
